B1: E. coli TonB with C-terminal TEV site and streptag-II (natural protein)
chain: MTLDLPRRFPWPTLLSVCIHGAVVAGLLYTSVHQVIELPAPAQPISVTMVTPADLEPPQAVQPPPEPVVEPEPEPEPIPEPPKEAPVVIEKPKPKPKPKPKPVKKVQEQPKRDVKPVESRPASPFENTAPARLTSSTATAATSKPVTSVASGPRALSRNQPQYPARAQALRIEGQVKVKFDVTPDGRVDNVQILSAKPANMFEREVKNAMRRWRYEPGKPGSGIVVNILFKINGTTEIQ
notes: TonB, E. coli; only the transmembrane helix (residues 10 to 32) was built, the periplasmic domain is not visible; also called EcTonB; TonBF
B2: E. coli ExbB (natural protein)
chain: MGNNLMQTDLSVWGMYQHADIVVKCVMIGLILASVVTWAIFFSKSVEFFNQKRRLKREQQLLAEARSLNQANDIAADFGSKSLSLHLLNEAQNELELSEGSDDNEGIKERTSFRLERRVAAVGRQMGRGNGYLATIGAISPFVGLFGTVWGIMNSFIGIAQTQTTNLAVVAPGIAEALLATAIGLVAAIPAVVIYNVFARQIGGFKAMLGDVAAQVLLLQSRDLDLEASAAAHPVRVAQKLRAG
notes: ExbB, E. coli; also called EcExbB; ExbBA
B3: E. coli TolQ (natural protein, UniProt P0ABU9 1-230, looked up)
chain: MTDMNILDLFLKASLLVKLIMLILIGFSIASWAIIIQRTRILNAAAREAEAFEDKFWSGIELSRLYQESQGKRDNLTGSEQIFYSGFKEFVRLHRANSHAPEAVVEGASRAMRISMNRELENLETHIPFLGTVGSISPYIGLFGTVWGIMHAFIALGAVKQATLQMVAPGIAEALIATAIGLFAAIPAVMAYNRLNQRVNKLELNYDNFMEEFTAILHRQAFTVSESNKG
notes: TolQ, E. coli; residues 2-225 built in the structure; also called EcTolQ; TolQA
B4: E. coli ExbD with C-terminal TEV site and 10his-tag (natural protein)
chain: MAMHLNENLDDNGEMHDINVTPFIDVMLVLLIIFMVAAPLATVDVKVNLPASTSTPQPRPEKPVYLSVKADNSMFIGNDPVTDETMITALNALTEGKKDTTIFFRADKTVDYETLMKVMDTLHQAGYLKIGLVGEETAKAK
notes: ExbD, E. coli; model built from Asp11 through the transmembrane helix (21-42), periplasmic domain not visible; No TEV digestion is described in the purification of TonB-ExbBD, so the tag was probably still on the chain; also called EcExbD; ExbDY

Assays:
E. coli ExbB = target: B2; test: cryo-EM structure; TonB-ExbBD complex, co-expressed and co-purified, in amphipol PMAL-C12 (Tris 30 mM pH8.0 NaCl 170 mM EDTA 1 mM); 300 keV; consensus map 2.8 A and two further classes at 3.2 A; conditions: both partners purified
[1] = target: the molecule itself; test: as above
[2] = target: the molecule itself; test: cryo-EM structure; TEV-digested TolATEVQR complex, co-expressed and co-purified, in LMNG (Hepes/NaOH 30 mM pH7.5 NaCl 150 mM EDTA 1 mM LMNG 0.002%), second SEC peak; 300 keV; two 3D classes (TolATEVQR-I 2.94 A, TolATEVQR-II 3.18 A)

Row | Binder | stoichiometry N [1] | other results
1 | B1 |  | stoichiometry N (E. coli ExbB): 1 TonB per five ExbB
2 | B2 | 5 | 
3 | B3 |  | stoichiometry N [2]: 5
4 | B4 | 2 | 
